Experimental data from patent publication US20060251652A1 (APPLIED MOLECULAR EVOLUTION, published 2006).

Molecular target: T1, human CD20 (human, UniProt P11836 1-297)
T1 construct: whole, on cells; Always presented on cells (fixed Ramos cells in ELISA; live cells in flow cytometry and KinExA-type assays); also called hCD20; Bp35
T1 sequence (looked up): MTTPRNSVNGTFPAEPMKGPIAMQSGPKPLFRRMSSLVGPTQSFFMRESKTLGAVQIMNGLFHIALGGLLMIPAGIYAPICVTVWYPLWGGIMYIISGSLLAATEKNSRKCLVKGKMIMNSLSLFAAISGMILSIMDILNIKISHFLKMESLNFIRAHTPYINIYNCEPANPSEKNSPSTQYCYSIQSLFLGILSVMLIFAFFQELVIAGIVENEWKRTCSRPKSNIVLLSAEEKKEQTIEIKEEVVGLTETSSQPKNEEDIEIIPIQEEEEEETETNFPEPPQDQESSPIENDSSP
Assay: ELISA on formalin-fixed Ramos cells, off-rate format: after the Fab incubation the plate stood overnight in PBS/BSA before anti-His6 peroxidase, OD 450
Description: Ramos cells (ATCC) were grown in RPMI 1640 containing 10% heat inactivated Fetal Bovine Serum. […] Media was gently aspirated and […] of aqueous buffered zinc formalin (Anatech, Ltd.) was added to each well for 15 minutes at room temperature. Z-fix was removed and the plate was washed with phosphate-buffered saline (PBS) containing 0.05% Tween 20. The plate was blocked for 1 hour with 1% bovine serum albumin (BSA) in PBS. Dilutions of Fab or IgG were incubated with the fixed and blocked Ramos cells for 1 hour at room temperature. The plate was washed 3× with PBS 0.05% Tween […] of anti-His6 Peroxidase Mouse Monoclonal Antibody (Roche Diagnostics Corporation) at a 1:500 dilution were added to the wells and incubated 1 hour at room temperature. The plate was washed as above and developed with tetramethyl benzidine, and the reaction was stopped with 5N H₂SO₄. The plate absorbance was read at OD 450 nm. Dilutions of Fab and conjugate were in 1% BSA/PBS.
IgG assays were performed similarly except IgG bound was detected with goat anti-human IgG-HRP. To compare antibody off-rate, after incubation with Fab or IgG the plates were incubated over night in PBS/BSA, before proceeding with the second antibody step. To compare antibody on-rate, incubation steps for Fab/IgG binding and with the second antibody were both of 5 minutes duration.

B1: AME 33 Fab (Fab, V domains shown)
VH: EVQLVQSGAEVKKPGESLKISCKGSGRTFTSYNMHWVRQMPGKGLEWMGAIYPLTGDTSYNQKSKLQVTISADKSISTAYLQWSSLKASDTAMYYCARSTYVGGDWQFDVWGKGTTVTVSS
VL: EIVLTQSPGTLSLSPGERATLSCRASSSVPYIHWYQQKPGQAPRLLIYATSALASGIPDRFSGSGSGTDFTLTISRLEPEDFAVYYCQQWLSNPPTFGQGTKLEIK
notes: Fab
- EC50 (read off the curve): ~0.3 µg/mL
